Values belong to the binder of their own block, whether it stands above or below them. Ends that are not written are not given here. * marks the point of attachment. LacNAc = N-acetyllactosamine (disaccharide N-linked to the Asn side chain), CC(=O)N[C@@H]1[C@@H](O)[C@H](O[C@@H]2O[C@H](CO)[C@H](O)[C@H](O)[C@H]2O)[C@@H](CO)O[C@H]1*; βGlcNAc = CC(=O)N[C@@H]1[C@@H](O)[C@H](O)[C@@H](CO)O[C@H]1*
Assays:
[1] = target: the molecule itself; test: circular dichroism + transmission electron microscopy
[2] = target: T1, Q11; test: co-sedimentation
T1 peptide: Ac-QQKFQFQFEQQ-NH2

B1: LacNAc-Q11 (peptide)
peptide: N(LacNAc)SGSGQQKFQFQFEQQ-NH2
binding result [1]: binds

binding result [2]: binds
B2: GlcNAc-Q11 (peptide)
peptide: N(βGlcNAc)SGSGQQKFQFQFEQQ-NH2
binding result [1]: binds
